Experiments:
[1] = biological target: T1, EphA4 (Homo sapiens, UniProt P54764); assay: ELISA measuring EphA4 activation; type: cell-based; details: HEK-EphA4 cells, ratio of IC50 values
[2] = mouse, ip
[3] = biological target: T1, EphA4; details: cited from earlier work

T1 sequence (P54764 20-986, species assumed): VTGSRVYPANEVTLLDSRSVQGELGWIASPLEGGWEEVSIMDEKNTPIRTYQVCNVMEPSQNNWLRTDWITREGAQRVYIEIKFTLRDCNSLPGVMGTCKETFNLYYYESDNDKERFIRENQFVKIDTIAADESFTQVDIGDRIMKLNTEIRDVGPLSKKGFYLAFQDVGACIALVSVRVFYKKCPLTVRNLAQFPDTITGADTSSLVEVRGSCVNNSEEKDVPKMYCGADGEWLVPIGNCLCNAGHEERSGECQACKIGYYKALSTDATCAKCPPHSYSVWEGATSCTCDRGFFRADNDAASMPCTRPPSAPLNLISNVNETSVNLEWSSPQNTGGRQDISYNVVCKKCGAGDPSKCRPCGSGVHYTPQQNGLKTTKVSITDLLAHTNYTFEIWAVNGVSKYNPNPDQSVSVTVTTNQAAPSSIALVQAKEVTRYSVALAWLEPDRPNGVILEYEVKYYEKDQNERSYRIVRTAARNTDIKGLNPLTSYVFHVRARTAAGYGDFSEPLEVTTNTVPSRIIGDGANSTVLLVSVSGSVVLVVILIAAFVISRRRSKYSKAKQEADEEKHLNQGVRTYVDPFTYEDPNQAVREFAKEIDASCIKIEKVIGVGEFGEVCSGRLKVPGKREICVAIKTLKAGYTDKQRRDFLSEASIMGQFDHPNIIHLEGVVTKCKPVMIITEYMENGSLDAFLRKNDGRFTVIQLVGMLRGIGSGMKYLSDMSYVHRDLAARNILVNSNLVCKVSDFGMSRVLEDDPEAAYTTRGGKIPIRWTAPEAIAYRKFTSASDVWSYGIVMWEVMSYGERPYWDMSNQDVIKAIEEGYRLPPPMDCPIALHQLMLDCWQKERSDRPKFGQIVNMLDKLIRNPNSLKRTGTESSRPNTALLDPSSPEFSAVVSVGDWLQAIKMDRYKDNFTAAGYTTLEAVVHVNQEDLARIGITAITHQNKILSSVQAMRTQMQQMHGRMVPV

Row | Substance | Potency in cells lower than that of APY-d3 [1] | Blood concentration at 20 hours after injection ([2]; in vivo, 0.8 mg per mouse, 20 h) | Blood concentration at 48 hours after injection ([2]; in vivo, 0.8 mg per mouse, 48 h) [nM] | In vivo half-life after intraperitoneal injection [2] [h] | More potent than APY [3] [fold]
1 | APY-d3-PEG4: APY-d3 conjugated to 30 kDa metoxy-PEG-azide through 3 amino-hexanoic acid groups and propargyl-glycine by click chemistry | ~ 4 fold | ~ 3 μM | 400 | > 10 | –
2 | APYCVYRβASWSC-NH2 (disulfide) [APY-d2] | – | – | – | – | 50
